The values that follow come from patent publication US20230105029A1 (CHIA TAI TIANQING PHARMACEUTICAL GROUP, published 2023).

“And” between values parts separate entries of the source, which are not always exact repeats. Equal entries are not always repeated. Where two headings read alike, the source gives them in different places.

Assay [1] addresses T1, recombinant human IL4Rα-his protein (in house made) (human, UniProt P24394 26-232, limits assumed).
T1 construct: also called Human IL4Ra-his
Kind of assay: SPR (Biacore), antibody captured, IL4Rα-his flowed. (SPR reads the build-up and loss of mass on a sensor chip optically.)

In assay [2] the target is T1, recombinant human IL4Rα-his protein (in …). In words: competitive ELISA: antibody mixed with biotin human IL4Rα-his, competitor plate-coated Benchmark.
Assay [3] has the same target. Kind of assay: SPR (Biacore), antibody captured, IL4Rα-his flowed. This is another data set of the same source.
The target in assay [4] is T2, human IL4Rα expressed on 293F-IL4Rα cells (human, UniProt P24394 26-825).
T2 construct: whole, on cells; also called cell surface human IL4Rα
Kind of assay: flow cytometry on 293F-IL4Rα cells, blocked ligand biotin human IL4. A general note: In flow cytometry, cells or beads pass a laser one at a time.

The target in assay [5] is T1, recombinant human IL4Rα-his protein (in …). Kind of assay: competitive ELISA: coated human IL4Rα-his, blocked ligand biotin human IL4. On the technique in general: ELISA stands for enzyme-linked immunosorbent assay.
The target is the same in assay [6]. In words: capture ELISA: antibody captured on anti-IgG Fc plate, biotin human IL4Rα-his detected.
For assay [7] the target is unchanged. Kind of assay: competitive ELISA: antibody mixed with biotin human IL4Rα-his, competitor plate-coated Benchmark. This is another data set of the same source.

B1: chimeric antibody B8G11F2B7G5E8 (antibody, human IgG4 S228P, kappa, V domains shown)
VH: EVQLQQSGADLVRPGASVKLSCTASGFNIKDTYMHWVKQRPEQGLEWVGRIDPTNGYTIYASKFQGKATITADTSSNTAYMQLSSLTSGDTAVYHCVSRRPWFAYWGQGTLVTVSA
VL: DILMTQTPLSLPVSLGAQASISCRSSQSIVHSNGNTYLEWYLQKPGQSPKLLIYKVTNRFSGVPDRFSGSGSGTDFTLKISRVEAEDLGIYYCFQGSHVPYTFGGGTKLEIKR
notes: Mouse variable domains on human IgG4/kappa; also called Chimeric B8G11F2B7G5E8; chB8G11F2B7G5E8
For orientation: Kd means the free concentration of one partner at which half of the binding sites on the other are occupied at equilibrium, for simple one-to-one binding. Usually koff stands for the first-order rate constant of dissociation. By kon is commonly meant a measure of how fast the partners come together. One may read the IC50 as the midpoint of a concentration-inhibition curve. Consider B1, for which, in assay [1], the equilibrium dissociation constant (Kd) is 3.68 nM and 2.69 nM; the koff is 0.00112 s⁻¹ and 0.00143 s⁻¹; the kon is 306000 M⁻¹ s⁻¹ and 529000 M⁻¹ s⁻¹. Also, the half-maximal inhibitory concentration (IC50) in assay [2] is 1.52 nM.

B2: chimeric antibody C2C1A1A1 (antibody, human IgG4 S228P, kappa, V domains shown)
VH: EVQLVESGGGLVQPGGSLKLSCAASGFTFSTYGMSWVRQTPDKRLELVATINSNGGSTSYPDSVKGRFTISRDNAKNTLYLQMSSLKSEDTAMFYCARFFRFRNAMDYWGQGTSVTVSS
VL: DIQMTQSPASLSASVGETVTITCRTSENIYSYLAWYQQKQGKSPQFLVYNAKTLAEGVPSRFSGSGSGTQFSLNINSLQSEDFGSYYCQHYYGPPTWTFGGGTKLEIKR
notes: Mouse variable domains on human IgG4/kappa; also called Chimeric C2C1A1A1; chC2C1A1A1
Usually EC50 stands for the concentration at which the effect is half-maximal. Take B2: the kon in assay [3] was 329000 M⁻¹ s⁻¹ and 364000 M⁻¹ s⁻¹. Moreover, the IC50 stood at 0.482 nM in assay [4], 2.46 nM in assay [5] and 0.172 nM in assay [7]. In addition, in assay [6], the EC50 worked out at 0.0541 nM.
